Experiments:
[1] = target: T1, MHC class I molecule B*0702 (biotin (bound to streptavidin-coated plate)); test: iTopia iScore
T1 construct: also called B7; HLA-B7
Protocol: (§1) The 9 mers were tested for Peptide Binding, Off Rate and Affinity using iTopia Epitope Discovery System in accordance with the manufacturer's instructions. Briefly, 96 well microtitre plates coated with MHC molecules representing different MHC alleles are used to identify candidate peptides. […] Determinations are performed in duplicate using an ELISA plate reader and included allele specific positive controls.
(§2) Finally, multiparametric analysis is performed on the results from these assays and an iScore is generated. The iScore represents a measure of the overall quality of peptide-MHC binding, enabling candidate peptides to be ranked in order of binding quality and allowing rational prioritisation of peptides for functional cellular follow-up studies.

[2] = target: T2, MHC class I molecule A*0201 (biotin (bound to streptavidin-coated plate)); test: iTopia iScore
T2 construct: also called A2; HLA-A2
Protocol: as §1, §2

[3] = target: T3, MHC class I molecule A*0301 (biotin (bound to streptavidin-coated plate)); test: iTopia iScore
T3 construct: also called A3; HLA-A3
Protocol: as §1, §2

[4] = target: T4, MHC class I molecule A*0101 (biotin (bound to streptavidin-coated plate)); test: iTopia iScore
T4 construct: also called A1; HLA-A1
Protocol: as §1, §2

[5] = target: T5, MHC class I allele A*0201 monomer (human, biotinylated, bound to streptavidin-coated plate); test: iTopia, multiparametric iScore
T5 construct: also called A2; HLA-A2
Protocol: as §1, §2

[6] = target: T6, MHC class I allele B*0702 monomer (human, biotinylated, bound to streptavidin-coated plate); test: iTopia, multiparametric iScore
T6 construct: also called B7; HLA-B7
Protocol: as §1, §2

[7] = target: T7, MHC class I allele A*0301 monomer (human, biotinylated, bound to streptavidin-coated plate); test: iTopia, multiparametric iScore
T7 construct: also called A3; HLA-A3
Protocol: as §1, §2

[8] = target: T8, MHC class I allele A*0101 monomer (human, biotinylated, bound to streptavidin-coated plate); test: iTopia, multiparametric iScore
T8 construct: placeholder peptide and b2M removed, then reconstituted with test peptide and fresh b2M; also called A1; HLA-A1
Protocol: as §1, §2

| Binder | iScore [1] | iScore [2] | iScore [3] | iScore [4] | iScore [5] | iScore [6] | iScore [7] | iScore [8] |
| --- | --- | --- | --- | --- | --- | --- | --- | --- |
| EDERQNRSF [5T4 9-mer peptide 94 EDERQNRSF] | 0 | 0 | 0 | 0 | – | – | – | – |
| AGRALQGLR [5T4 9-mer peptide 103 AGRALQGLR] | 0 | 0 | 0 | 0 | – | – | – | – |
| QNRSFEGMV [5T4 9-mer peptide 96 QNRSFEGMV] | 0 | 0.052 | 0 | 0 | – | – | – | – |
| LPRDVLAQL [5T4 9-mer peptide 113 LPRDVLAQL] | 0.305 | 0 | 0 | 0 | – | – | – | – |
| DNALKVLHN [5T4 9-mer peptide 134] | – | – | – | – | 0 | 0 | 0 | 0 |
| LSNNSLVSL [5T4 9-mer peptide 121] | – | – | – | – | 0.116 | 0.012 | 0 | 0 |
| FEGMVVAAL [5T4 9-mer peptide 98 FEGMVVAAL] | 0 | 0.051 | 0 | 0 | – | – | – | – |
| VSLTYVSFR [5T4 9-mer peptide 124] | – | – | – | – | 0 | 0 | 0.025 | 0 |
| SLVSLTYVS [5T4 9-mer peptide 123] | – | – | – | – | 0.206 | 0 | 0 | 0 |
| VVAALLAGR [5T4 9-mer peptide 100 VVAALLAGR] | 0 | 0 | 0.125 | 0 | – | – | – | – |
| KVLHNGTLA [5T4 9-mer peptide 136] | – | – | – | – | 0.15 | 0 | 0 | 0 |
| LEDNALKVL [5T4 9-mer peptide 133] | – | – | – | – | 0.122 | 0 | 0 | 0 |
| ALKVLHNGT [5T4 9-mer peptide 135] | – | – | – | – | 0.104 | 0 | 0 | 0 |
| GMVVAALLA [5T4 9-mer peptide 99 GMVVAALLA] | 0 | 0.384 | 0 | 0 | – | – | – | – |
| HLESLHLED (also called HLESLHLED) [5T4 9-mer peptide 130] | – | – | – | – | 0 | 0 | 0 | 0 |
| HFLYLPRDV [5T4 9-mer peptide 111 HFLYLPRDV] | 0 | 0.227 | 0 | 0 | – | – | – | – |
| LQGLRRLEL [5T4 9-mer peptide 105 LQGLRRLEL] | 0.119 | 0.114 | 0 | 0 | – | – | – | – |
| RHLDLSNNS [5T4 9-mer peptide 119 RHLDLSNNS] | 0 | 0.029 | 0 | 0 | – | – | – | – |
| RALQGLRRL [5T4 9-mer peptide 104 RALQGLRRL] | 0.078 | 0.168 | 0.027 | 0 | – | – | – | – |
| LLAGRALQG [5T4 9-mer peptide 102 LLAGRALQG] | 0 | 0.176 | 0 | 0 | – | – | – | – |
| NNSLVSLTY [5T4 9-mer peptide 122] | – | – | – | – | 0 | 0 | 0 | 0 |
| SLRHLDLSN [5T4 9-mer peptide 118 SLRHLDLSN] | 0 | 0.03 | 0 | 0 | – | – | – | – |

| Binder | iScore [1] | iScore [2] | iScore [3] | iScore [4] | iScore [5] | iScore [6] | iScore [7] | iScore [8] |
| --- | --- | --- | --- | --- | --- | --- | --- | --- |
| LHNGTLAEL [5T4 9-mer peptide 137] | – | – | – | – | 0.187 | 0.026 | 0 | 0 |
| VLAQLPSLR [5T4 9-mer peptide 115 VLAQLPSLR] | 0 | 0.113 | 0.023 | 0 | – | – | – | – |
| LDLSNNSLV [5T4 9-mer peptide 120] | – | – | – | – | 0.156 | 0 | 0 | 0 |
| SFRNLTHLE [5T4 9-mer peptide 127] | – | – | – | – | 0 | 0 | 0 | 0 |
| RNLTHLESL [5T4 9-mer peptide 128] | – | – | – | – | 0.072 | 0 | 0 | 0 |
| LELASNHFL [5T4 9-mer peptide 108 LELASNHFL] | 0 | 0.151 | 0 | 0 | – | – | – | – |
| GLRRLELAS [5T4 9-mer peptide 106 GLRRLELAS] | 0 | 0.045 | 0 | 0 | – | – | – | – |
| AQLPSLRHL [5T4 9-mer peptide 116 AQLPSLRHL] | 0 | 0.162 | 0 | 0 | – | – | – | – |
| RSFEGMVVA [5T4 9-mer peptide 97 RSFEGMVVA] | 0 | 0.189 | 0 | 0 | – | – | – | – |
| LASNHFLYL [5T4 9-mer peptide 109 LASNHFLYL] | 0 | 0.337 | 0.224 | 0.12 | – | – | – | – |
| RRLELASNH [5T4 9-mer peptide 107 RRLELASNH] | 0 | 0 | 0 | 0 | – | – | – | – |
| AALLAGRAL [5T4 9-mer peptide 101 AALLAGRAL] | 0.238 | 0.156 | 0 | 0 | – | – | – | – |
| ERQNRSFEG [5T4 9-mer peptide 95 ERQNRSFEG] | 0 | 0 | 0 | 0 | – | – | – | – |
| PPEDERQNR [5T4 9-mer peptide 93 PPEDERQNR] | 0 | 0 | 0 | 0 | – | – | – | – |
| NGTLAELQG [5T4 9-mer peptide 138] | – | – | – | – | 0 | 0 | 0 | 0 |
| RDVLAQLPS [5T4 9-mer peptide 114 RDVLAQLPS] | 0 | 0 | 0 | 0 | – | – | – | – |
| LYLPRDVLA [5T4 9-mer peptide 112 LYLPRDVLA] | 0 | 0.218 | 0 | 0 | – | – | – | – |
| SNHFLYLPR [5T4 9-mer peptide 110 SNHFLYLPR] | 0 | 0.051 | 0.084 | 0 | – | – | – | – |
| LTHLESLHL [5T4 9-mer peptide 129] | – | – | – | – | 0.143 | 0 | 0 | 0 |
| ESLHLEDNA [5T4 9-mer peptide 131] | – | – | – | – | 0 | 0 | 0 | 0 |
| LHLEDNALK [5T4 9-mer peptide 132] | – | – | – | – | 0 | 0 | 0 | 0 |

Source: US20090280138A1 (OXFORD BIOMEDICA UK, published 2009)
